Experimental data published in US20240182561A1 (Regeneron, published 2024).
Like-named read-outs stand apart in the source and are kept apart here.

T1: mouse CACNG1 expressed on cells (mouse, UniProt O70578 1-223)
T1 sequence (looked up): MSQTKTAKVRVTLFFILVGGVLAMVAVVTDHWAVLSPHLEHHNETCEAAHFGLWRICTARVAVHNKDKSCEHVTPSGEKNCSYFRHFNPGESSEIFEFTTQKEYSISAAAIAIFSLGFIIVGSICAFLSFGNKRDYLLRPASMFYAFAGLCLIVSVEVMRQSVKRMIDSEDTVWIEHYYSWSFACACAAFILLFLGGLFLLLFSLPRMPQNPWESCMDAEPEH


How the values were obtained:
[1] = target: T2, human CACNG1 expressed on cells (human, UniProt Q06432 1-222); assay: cell-based or functional assay
[2] = target: T1, mouse CACNG1 expressed on cells; assay: cell-based or functional assay
[3] = target: T2, human CACNG1 expressed on cells; assay: cell-based or functional assay; remark: listed apart in the source
[4] = target: T2, human CACNG1 expressed on cells; assay: cell-based or functional assay; remark: listed apart in the source
[5] = target: T2, human CACNG1 expressed on cells; assay: cell-based or functional assay; remark: listed apart in the source
[6] = target: T2, human CACNG1 expressed on cells; assay: imaging cell binding, HEK293/hCACNG1
Procedure: (§1) HuSKM were seeded in collagen-coated 96-well plates (Greiner Bio-One #655956) at 8,500 cells/well and grown for 24 hours. The growth media was changed to MyoTonic Differentiation Media (Cook Myosite Cat #MD-5555) and replaced every 2 days. Myotubes were assayed after 6 days of differentiation. C2C12 mouse myoblasts were maintained in DMEM with 10% FBS and 1% penicillin-streptomycin supplement and grown in a 37° C. incubator with 5% CO₂. C2C12 cells were seeded in collagen-coated 96-well plates (Greiner Bio-One #655956) at 10,000 cells/well for the cell binding assay and 5,000 cells/well for the cell killing assay. After 24 hours, growth media was replaced with differentiation media (DMEM with 2% horse serum) and placed in a 37° C. incubator with 7.5% CO₂. C2C12 myotubes were assayed after 3 days of differentiation. HEK293/hCACNG1, HEK293/mCACNG1, and HEK293 cells were seeded at 10,000 cells (cell binding assay) or 2,000 (cell killing assay) per well in 96-well black collagen coated plates (Greiner Bio-One, cat #655956) in complete growth media and grown overnight at 37° C. in 5% CO₂.
(§2) Relative binding of anti-CACNG1 antibodies was assessed across the entire panel of cell lines via imaging analysis. […] After one wash with antibody dilution buffer, samples were fixed in CytoFix (BD Biosciences, Cat #554655) diluted 1:1 in PBS and supplemented with a 1:2000 dilution of Hoechst 33342 (Thermo, Cat #H1399) for 20 minutes on ice. Images were acquired with a 10× objective on the Opera Phenix (Perkin Elmer) and relative fluorescence units (RFU) was determined using Harmony software (Perkin Elmer).

[7] = target: T1, mouse CACNG1 expressed on cells; assay: imaging cell binding, HEK293/mCACNG1
Procedure: as §1, §2

[8] = target: T2, human CACNG1 expressed on cells; assay: imaging cell binding, HuSKM myotubes
Procedure: as §1, §2

[9] = target: T1, mouse CACNG1 expressed on cells; assay: imaging cell binding, C2C12 mouse myotubes
Procedure: as §1, §2

[10] = target: T2, human CACNG1 expressed on cells; assay: cell-based or functional assay; remark: listed apart in the source
[11] = target: T3, nanodisc embedded human CACNG1 expressed with a C-terminal PADRE-Flag-His tag (human, UniProt Q06432 1-222); assay: SPR, anti-His-captured nanodisc, 25 C
T3 construct: Captured on an anti-His Biacore surface; also called human CACNG1 nanodisc; CACNG1 nanodisc; not shown: C-terminal tag
Procedure: Equilibrium dissociation constants (KD values) for nanodisc embedded human CACNG1 expressed with a C-terminal […] tag (human CACNG1 nanodisc; concentration 0.82 mg/ml) binding to purified anti-CACNG1 antibodies were determined using a real-time surface plasmon resonance biosensor technology with a Biacore T200 instrument. The CM5 Biacore sensor surface was derivatized by amine coupling with a monoclonal mouse anti-His antibody (Cytiva; Marlborough, MA). All Biacore binding studies were performed in a buffer composed of 0.01M HEPES, 0.15M NaCl, 1 mM CaCl₂, 0.5 mM MgCl₂, pH 7.4 (HBS-N++ running buffer). Different concentrations of anti-CACNG1 antibodies (ranging from 300 nM to 12 nM in 5-fold serial dilutions) prepared in HBS-N++ running buffer were injected over the captured human CACNG1 nanodisc at a flow rate of 30 μL/minute. Antibody association was monitored for 2 minutes while dissociation was monitored in HBS-N++ running buffer for 5 minutes. At the end of each cycle, the human CACNG1 nanodisc capture surface was regenerated using three 10 second injections of 10 mM Gly pH1.5. All binding kinetics experiments were performed at 25° C.
The specific SPR-Biacore sensorgrams were obtained by a double referencing procedure. The double referencing was performed by first subtracting the signal of each injection over a reference surface (anti-His) from the signal over the experimental surface (anti-His captured human CACNG1 nanodisc) thereby removing contributions from refractive index changes. In addition, running buffer injections were performed to allow subtraction of the signal changes resulting from the dissociation of captured antibodies from the coupled anti-His surface. Kinetic association (kₐ) and dissociation ([…]) rate constants were determined by fitting the real-time sensorgrams to a 1:1 binding model using Scrubber v2.0c curve fitting software. Binding dissociation equilibrium constants (KD) and dissociative half-lives (t %) were calculated from the kinetic rate constants as: […]

[12] = target: T2, human CACNG1 expressed on cells; assay: imaging cell binding, HEK293/hCACNG1; remark: listed apart in the source
Procedure: as §1, §2

[13] = target: T2, human CACNG1 expressed on cells; assay: imaging cell binding, HuSKM myotubes; remark: listed apart in the source
Procedure: as §1, §2

[14] = target: T1, mouse CACNG1 expressed on cells; assay: imaging cell binding, C2C12 mouse myotubes; remark: listed apart in the source
Procedure: as §1, §2

[15] = target: T2, human CACNG1 expressed on cells; assay: cell-based or functional assay; remark: listed apart in the source
[16] = target: T2, human CACNG1 expressed on cells; assay: cell-based or functional assay; remark: listed apart in the source
[17] = target: T2, human CACNG1 expressed on cells; assay: cell-based or functional assay; remark: listed apart in the source
[18] = target: T2, human CACNG1 expressed on cells; assay: live myotubes (human myotubes per paragraph 866) incubated with antibody, detection with Alexa 647-conjugated F(ab')2 secondary antibody, Hoechst counterstain, fluorescence imaging; titration 100 to 0.02 nM and 0 nM
[19] = target: T2, human CACNG1 expressed on cells; assay: cell-based or functional assay; remark: listed apart in the source
[20] = target: T2, human CACNG1 expressed on cells; assay: cell-based or functional assay; remark: listed apart in the source
[21] = target: T2, human CACNG1 expressed on cells; assay: cell-based or functional assay; remark: listed apart in the source

T2 sequence (Q06432 whole entry): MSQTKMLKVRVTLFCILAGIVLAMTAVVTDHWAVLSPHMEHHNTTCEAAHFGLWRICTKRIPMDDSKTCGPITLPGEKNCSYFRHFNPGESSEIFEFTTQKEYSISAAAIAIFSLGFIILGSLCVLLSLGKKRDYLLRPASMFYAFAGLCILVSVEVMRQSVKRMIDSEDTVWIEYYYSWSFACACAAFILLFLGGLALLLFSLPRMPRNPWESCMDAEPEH
T3 sequence (Q06432 whole entry): as above

Row | Binder | % KILL, indirect cell killing, HEK293/hCACNG1 [1] [%] | % KILL, indirect cell killing, HuSKM [1] [%] | EC50/IC50, indirect cell killing, HEK293/hCACNG1 [1] [nM] | EC50/IC50, indirect cell killing, HuSKM [1] [nM] | % KILL, indirect cell killing, HEK293/mCACNG1 [2] [%] | EC50/IC50, indirect cell killing, HEK293/mCACNG1 [2] [nM] | EC50 [8] [nM] | S/N [8] [fold] | EC50/IC50, indirect cell killing, HuSKM [10] [nM] | Kd [11] [nM] | koff [11] [s⁻¹] | kon [11] [M⁻¹ s⁻¹] | mAb bound at 300 nM [11] [RU] | t1/2 [11] [min] | also measured
1 | REGN5972 (antibody, V domains shown, also called H4H31265P2/REGN5972; CACNG1 hIgG1 antibody) VH: QVQLVESGGGVVQPGRSLRLSCTASGFTFRSYGMHWVRQAPGKGLEWVSVIWIDGNNIYYADSVKGRFTISRDNSKNTLYLQMDSLRAEDTAVYYCARRLAITSAAPFDYWGQGTLVTVSS VL: not shown | 95.4 | 97.4 | 0.00139 | 0.585 | 11 | > 1 | 2.9 | 313 | – | – | – | – | – | – | % KILL, indirect cell killing, C2C12 [2]: 0%; EC50/IC50, indirect cell killing, C2C12 [2]: > 10 nM; EC50 of androgen receptor luciferase reporter activation (RLU) by the DHT conjugate REGN5972-M3004 in hCACNG1.AR.Luc LNCaP cells, 24 hours; concentration adjusted for DAR [3]: 19 nM; EC50 of androgen receptor luciferase reporter activation (RLU) by the DHT conjugate REGN5972-M3004 in hCACNG1.AR.Luc LNCaP cells, 48 hours; concentration adjusted for DAR [4]: 6.49 nM; EC50 of androgen receptor luciferase reporter activation (RLU) by the DHT conjugate REGN5972-M3004 in hCACNG1.AR.Luc LNCaP cells, 72 hours; concentration adjusted for DAR [5]: 7.79 nM; EC50 [6]: 6.6 nM; S/N [6]: 172 fold; EC50 [7]: > 100 nM; S/N [7]: 5.3 fold; S/N [9]: 1.6 fold
2 | REGN9908 (antibody, mouse IgG2b, V domains shown, mIgG2b) VH: EVQLLESGGGLAQPGGSLRLSCAASGFTFSSYAMSWVRQAPGKGLEWVSSVSGSGGTTYYAASVKGRFTVSRDNSKKTLYLQMNSLRAEDTAVYYCGKGGYCSSSGCRHYGMDVWGQGTTVTVSA VL: QSVLTQPPSASGTPGQRVAISCSGSNSNIGNNYLYWYQQIPGTTPKLLIYRNNQRPSGVPDRFSASKSGTSASLAISGLRSGDEADYYCAAWDDSLSGYVFGTGTKVTVLG | – | – | – | – | – | – | 14.8 | 164 | 0.0859 | 9.57 | 0.00402 | 419000 | 21 | 2.9 | –
3 | REGN9909 (antibody, mouse IgG2a, kappa, V domains shown, mIgG2a) VH: EVQLLESGGGLVQPGGSLRLSCAASGFTFNNYGMSWVRQGPGKGLEWVSSISGSGGTTFYADSVKGRFTISRDNSKNTLYLQMNSLRAEDTAVYYCGKGGYCSSSGCRHYGMDVWGQGTTVTVSS VL: QSVLTQPPSASGTPGQRVTISCSGSSSNIGNNYIYWYQRLPGTTPKLLIYRNNQRPSGVPDRFSGSKSGTSASLAISGLRSEDEADYYCAAWDDTLSGYVFGTGTKVTVLR | 95.2 | 99.5 | 0.00235 | 0.0183 | 88.5 | 0.0612 | 6.51 | 141 | 0.00968 | 4.15 | 0.00137 | 331000 | 22 | 8.4 | EC50 [12]: 1.6 nM; S/N [12]: 5.4 fold; EC50 [13]: 14 nM; S/N [13]: 171 fold; EC50 [14]: 8.3 nM; S/N [14]: 4.2 fold
4 | REGN14572 (antibody, human IgG1, kappa, N297Q) heavy: not shown light: DIQMTQSPSTLSASVGDRVTLTCRASQSISNKLAWYQQKPGKAPNLLIYKASNLESGVPSRFSGSGSGTEFTLTISSLQPDDFATYYCQQYNSYSWTFGQGTKVEIKRTVAAPSVFIFPPSDEQLKSGTASVVCLLNNFYPREAKVQWKVDNALQSGNSQESVTEQDSKDSTYSLSSTLTLSKADYEKHKVYACEVTHQGLSSPVTKSFNRGEC | – | – | – | – | – | – | – | – | – | – | – | – | – | – | EC50 of androgen receptor luciferase reporter activation (RLU) by the DHT conjugate REGN14572-M3004 in hCACNG1.AR.Luc LNCaP cells, 24 hours; concentration adjusted for DAR [15]: 11.2 nM; EC50 of androgen receptor luciferase reporter activation (RLU) by the DHT conjugate REGN14572-M3004 in hCACNG1.AR.Luc LNCaP cells, 48 hours; concentration adjusted for DAR [16]: 11.9 nM; EC50 of androgen receptor luciferase reporter activation (RLU) by the DHT conjugate REGN14572-M3004 in hCACNG1.AR.Luc LNCaP cells, 72 hours; concentration adjusted for DAR [17]: 10.3 nM
5 | REGN7854 (antibody, human IgG4 S228P, kappa, V domains shown, also called CACNG1 Ab) VH: QVQLVQSGAEVKKPGASVKVSCKASGYAFTTYGITWVRQAPGQGLEWMGWISAYNGNTNYAEKVQGRFTMTTDTSTNTAYMELRSLRSDDTAVYFCARKGHYGSGTYYNPFGFDFWGQGTMVTVSS VL: EIVLTQSPGTLSLSPGERATLSCRASQSVSSSYLAWYQQKPGQAPRLLIYGASSRATGIPDRFSGSGSGTDFTLTISRLEPEDFALYFCQQYYGSPWTFGQGTKVEIKR | – | – | – | – | – | – | – | – | – | – | – | – | – | – | binding result [18]: binds
6 | REGN14573-M3004 (antibody, human IgG1, lambda, N297Q, N297Q; DHT linker-payload M3004 conjugated, DAR about 4) heavy chain: not shown light chain: QSVLTQPPSVSAAPGQKVTISCSGSSSNIGNNYVSWYQQLPGTAPKLLIYDNNKRPSGIPDRFSGSKSGTSATLGITGLQTGDEADYYCGTWDLSLSFNWVFGGGTKLTVLGQPKAAPSVTLFPPSSEELQANKATLVCLISDFYPGAVTVAWKADSSPVKAGVETTTPSKQSNNKYAASSYLSLTPEQWKSHRSYSCQVTHEGSTVEKTVAPTECS | – | – | – | – | – | – | – | – | – | – | – | – | – | – | EC50 of androgen receptor luciferase reporter activation (RLU) by the DHT conjugate REGN14573-M3004 in hCACNG1.AR.Luc LNCaP cells, 24 hours; concentration adjusted for DAR [19]: 214 nM; EC50 of androgen receptor luciferase reporter activation (RLU) by the DHT conjugate REGN14573-M3004 in hCACNG1.AR.Luc LNCaP cells, 48 hours; concentration adjusted for DAR [20]: 213 nM; EC50 of androgen receptor luciferase reporter activation (RLU) by the DHT conjugate REGN14573-M3004 in hCACNG1.AR.Luc LNCaP cells, 72 hours; concentration adjusted for DAR [21]: 185 nM
